# Results from the RNAGym collection of RNA variant scans (doi:10.1073/pnas.2313332121).
# B1: TPR t1 (parent)
# chain: GACCAAUCUGCCCUCAGAGCUCGAGAACAUCUUCGGAUGCAGAGGAGGCAGGCUUCGGUGGCGCGAUAGCGCCAACGUCCUCAACCUCCAAUGCAUCCCACCACAUGAUGAUGCCUGAAGAGCCUUGGUUUUUUG
# Variants of: B1
# Assay: polymerase ribozyme fitness, log enrichment relative to wild type (log ratio); higher = more active; in vitro selection for triplet polymerase activity
# Outline: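 Mutant libraries were PCR-built and transcribed for each subunit of a heterodimeric triplet polymerase ribozyme and selected for one round in triplicate at −7 °C, frozen, before gel excision of extended constructs and streptavidin-bead capture. Input and output libraries were Illumina-sequenced, keeping genotypes with ≥10 input reads and ≥1 read per output. Fitness is a logarithmic ratio of genotype to wild-type enrichment, in base 2, using inverse-variance-weighted replicate averages.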
row,Variant,polymerase ribozyme fitness (log ratio)
1,GACCCAUCUGCCCUCAAAGCUCGAGAACAUCUUCGGAUGCAGAGGAGGCAGGCUUCGGUGGCGCGAUAGCGCCAACGUCCUAAACCUCCAAUGCAUCCCACCACAUGAUGAUGCCUGAAGAGCCUUGGUUUUUUG [A5C G17A C82A],-5.14
2,GACCAAUCUGCCCUCAGAGCUCGAGAACAUCUUCGGAUGCUGAGGAGGCAGGCUUCGGUGGCGCGAUAGCGGCAACGACCUCUACCUCCAAUGCAUCCCACCACAUGAUGAUGCCUGAAGAGCCUUGGUUUUUUG [A41U C72G U78A A83U],-2.44
3,GACCAAUCUGCCCUCAGUGCUCGAGAAUAUCUUCGGAUGCAGAGGAGGCAAGCUUCGGGGGCGCGAUAGCGCCAACGUCCUCAACCUCCAAUGCAUCCCACCACAUGAUGAUGCCUCAAGAGCCUUGGUUUUUUG [A18U C28U G51A U59G G117C],-6.92
4,GACCAAUCUGCCCUCAGAGCUCGAGAACAUCUUCGGGUGCAGAGGAGGCAGGCUUCGGUGGCGCGAUAGCGCCAACGUCCUCAACCUCCAAUGCAUCCCACCACAUGAUGAUGCCUGUAGAGCCUUGGUUUUUUG [A37G A118U],0.234
5,GACCAAUCUGCCCUCAGAGCUCGAGAACAUCUUCGGAUGCAGAGGAGGCAGGCUUCGGUGGCGCGAUAGCGCCAACGAACUCAACCUCCAAUGCCUCCCACCACAUGAUGAUGCCUGAAGAGCCUUGGUUUUUUG [U78A C79A A95C],-4.32
6,GACCAAUCUGCCCUCAGAGCUCGAGAACAUCUUCGGAUGCAGAGAAGGCAGGCUUCGGUGACGCGAUAGCGCCAACGUCCUCAACCUCCAAUGCAUCCCACCACAUGAUGAUGCCUGAAGAGCCUUGGUUUUUUG [G45A G61A],-0.513
7,GACCAAUCUGCCCUCAGAGCUCGAGAACAUCUUCGGAUGCAGAGGAGGCAGGCUUCGGUGGCGCGAUAGCGCCAACGUCCUCAACCUCCAAUGCAUCCCAGCACAUGAUGAUGCCUGAAGAGUCUUGGUUUUUUG [C101G C123U],-0.756
8,GACCAAUCUGCCCUCAGAGCUCGAGAACAUCUUCGGAUGCAGAGGUGGCAGGCUUCGGUGACGCGUUAGCGCCAACGUCCUCAACCUCCAAUGCAUCCCACCACAUGAUGAUUCCUGAAGAGGCUUGGAUUUUUG [A46U G61A A66U G113U C123G U129A],-5.08
9,GACCAAUCUGCCCUCAGAGCUCGAGAACAUCUUCGGAUGCAGAGGAGGCAGGCUUCUGUGGCGCGAUAGCGCCAACGUCCUCAACCACCCAUGCAUCCCAUCACAUGAUGAUGUCUGAAGAGCCAUGGUUUUUUG [G57U U87A A90C C101U C114U U125A],-4.29
10,GACCAAUCUGCCCUCAAAGCUCGAGAACAUCUUCGGAUGCAGAGGAGGGAGGCUCCGGUGGCGCGAUAGCGCCAUUGUCCUCAACCUCCAAUGCAUCCCACCACAUGAUGAUUCCUGAAGAGCCUUGGUUUUUUG [G17A C49G U55C A75U C76U G113U],-7.46
11,GACCAAUCUGGUCUCAGAGCUCGAGAACAUCUUCGGAUGCAGAGGAGGCAGGCUUCGGUGGCGCGAUAGCGCCAACGUCCUCAACCUCCAAUGCAUCCCACCACAUGAUGAUACCUGUAGAGCCUUGGUUUUUUG [C11G C12U G113A A118U],-3.33
12,GACCAAUCUGCCCUCAGAGCUCGAGAACAUCUUCGGAUGCAGAGGAGGCAGGCUUCGGUGGCGCGAUAGAGCCAACGUCCUCAACCUCCAAUGCAUCCCUCCACAUGAUGAUGCCUGAAGAGCCUUGGUUUUUUG [C70A A100U],-2.07
13,GACCAAUCUGCCCUCAGAGCUCGAGAACAUCUUCGGAUGCAGAGGAGGCAGGCUUCGGUGGCGCGAUAGCGCCAACGUCCUCAAACUCCAAUGAAUCCCACCACAUGAUGUUGCCUGAAGAGCCUUGGUUUUUUG [C85A C94A A111U],-5.51
14,GACCAAUCUGCCCUCAGAGCUCGAGAACAUCUUCGGAUGCAGAGGAGGCAGGCUUCAGUGGCGCGAUAGCGUCAACGUCCUCAACCUCCAAUGCAUCCCACCACAUGAUGAUAUCUGAAGAGCCUUGGUUUUUUG [G57A C72U G113A C114U],-2.53
15,GACCAAUCUGCCCUCAGAGCUCGAGAACAUCUUCGGAUGCAGAGGAGGCAGGCUCUGGUGGCGCGAUAGCGCCAACGUCCUCAACCUCCAAUGCAUCCCACCACAUGAUGAUGCCUGAAGAGCCAUGGUUUUUUG [U55C C56U U125A],-0.641
16,GACCAAGCUGCCCUAAGAGCUCGAGAACAUCUUCGGACGGUGAGGAGUCAGGCUUCGGUGGCGCGAUAACGCCAACGUCCUCAACCUCAAAUGCAGCUCACCACAUGAUGGUGCCUGAAGAGCCUUGGUUUUUUG [U7G C15A U38C C40G A41U G48U G69A C89A U96G C98U A111G],-7.66
17,GACCCAUCUGCCCUCAGAGCUCGAGAACAUCUUCGGAUGCAGAGGAGGCAGGCUUCGGUGGUGCGAUAGCGGCAACGUCCUCAACCUCCAAUGCAUCCCAGCACAGGAUGAUGCCUGAAGAGCCUUGGCUUUUUG [A5C C62U C72G C101G U106G U129C],-5.17
18,GACCAAUCUGCCCUCAGAGCUCGAGAACAUCUUCGGAUGCAGAGGAGGCAGGCUUCGGUCGCGCGAUAGCGCCAACGUCCUCAACCUCCAAUGCAUCCCACCACAUGAGGAUGCCUGAAGAGCCUUGGUUUUUUG [G60C U109G],-5.41
19,GACCAAUCAGACCUCAGAGCUCGAGAACAUCUUCGGAUGCAUAGGAGGCAGGCUUCGGUGGCGUGAUAGCGCCAACGUCCUCAACCUCCAAUGCAUCCCACCACAUGAUGAUGCCUGAAGAGCCUUGGUUUUUUG [U9A C11A G42U C64U],-1.3
20,GACCAAUCUGCCCUCAGAGCUCGAGAACAUCUUCGGAUGCAGAGGAGGCAGGCUUCGGUGGCGCGAUAGCGUCCACGUCCUCAACCUCCAAUGCAUCCCACCACAUGAUGAUGCCUGAAGAGCCUUGGUUUUUUG [C72U A74C],0.54
21,GACCAAUCUGCCCUCAGAGCUCGAGAACAUCUUCGGGUGCAGAGGAGGCAGGCUUCGGGGGCGCGAUAGCGCCAACGUCCUCAACCUCCAAUGCAUCCCACCACAUGAUGAUGCCUGAAGAGCCUUGGUUUUUUG [A37G U59G],0.0397
